Test results from the Immune Epitope Database (IEDB).

Biological target: HLA-A*11:01
Assay: IEDB peptide-MHC binding, purified MHC/competitive/radioactivity; ≥ and ≤ were set here for values at or beyond the usual limits of such assays
[1] = source organism: Human immunodeficiency virus 1
[2] = source organism: Hepatitis B virus
[3] = source organism: Influenza A virus (A/Puerto Rico/8/1934(H1N1))

Sequence: RAKWNNTLK
- IC50 [1]: 188 nM

Sequence: ATQIPSYKK
- IC50 (source organism: Homo sapiens): 128 nM

Sequence: QIYQEPFKNLK
- IC50 [1]: 21 nM

Sequence: KVFVLGGCR
- IC50 [2]: 6.5 nM

Sequence: NVKNLYEKVK
- IC50 [3]: 51 nM

Sequence: RMGVQMQRFK
- IC50 [3]: 94 nM

Sequence: IMPARFYPK
- IC50 [2]: 4.1 nM

Sequence: PVTIGECPK
- IC50 [3]: 2.6 nM

Sequence: AVDLSHFLK
- IC50 [1]: 5 nM

Sequence: AVFIHNFKRK
- IC50 [1]: 7.1 nM

Sequence: MTKILEPFR
- IC50 [1]: 378 nM

Sequence: TVQPIVLPEK
- IC50 [1]: 2.4 nM

Sequence: GSTHVSWPK
- IC50 [2]: 3.1 nM

Sequence: KVYLAWVPAHK
- IC50 [1]: 7.6 nM

Sequence: ESLFRAVITK
- IC50 (source organism: Homo sapiens): 1150 nM

Sequence: RLADEGLNR
- IC50 [2]: 245 nM

Sequence: KVLFLDGIDK
- IC50 [1]: 7.7 nM

Sequence: GTKVVPRGK
- IC50 [3]: 72 nM

Sequence: GTDNSVVLSR
- IC50 [2]: 107 nM

Sequence: LACAGLAYK
- IC50 (source organism: Plasmodium falciparum): 207 nM

Sequence: GVTAACSHAGK
- IC50 [3]: 30 nM

Sequence: QMAVFIHNFK
- IC50 [1]: 8.4 nM

Sequence: LSLDVSAAFY
- IC50 [2]: 545 nM

Sequence: ASQIYAGIK
- IC50 [1]: 18 nM

Sequence: AVNHYFKTR
- IC50 [2]: 61 nM

Sequence: GIPHPAGLK
- IC50 [1]: 35 nM

Sequence: TTDLEAYFK
- IC50 [2]: 6.5 nM

Sequence: YLAWVPAHK
- IC50 [1]: 106 nM

Sequence: CALPFTSAR
- IC50 [2]: 316 nM

Sequence: LTEKEGSYPK
- IC50 [3]: 121 nM
